From patent US20220259303A1 (ZHEJIANG DOER BIOLOGICS, published 2022)

Tests used:
CLD18A2 [1] = target: T1, CLD18A2; assay: cell ELISA on CLD18A2-expressing cells, anti-human IgG Fc detection
T1 construct: also called claudin 18 splice variant A2; CHO-S-CLD18A2
Experimental: The Anti-C18.2-Fc fusion proteins are diluted in gradients with 1% BSA, and the HRP-Goat anti-Human IgG Fc (Novex) secondary antibody is diluted 1:20000. The cell ELISA method is the same as that described in Embodiment 3.2. The software GraphPad Prism v5.0 is used for data processing and mapping analysis. The binding curve and EC50 value of Anti-C18.2-Fc against CLD18A2 in cells are obtained to reflect the affinity of the antibody to CLD18A2.
The affinities of Anti-C18.2-hu19V1-Fc and Anti-C18.2-hu19V3-Fc are similar to that of Anti-C18.2-19-Fc, which are better than that of the positive control ch-175D10.

CLD18A2 [2] = target: T1, CLD18A2; assay: cell ELISA, purified VHH 2 µg/ml on CHO-S-CLD18A2
Experimental: (§1) CHO-S, CHO-S-CLD18A1, and CHO-S-CLD18A2 are plated in 96-well plates at 5×10⁵ cells per well, and blocked with 3% BSA at room temperature for 1 h. The purified Anti-CLD18A2 VHH with HIS-tag is diluted to 2 μg/ml, add 100 μl to the blocked cells, and incubated for 1 h at room temperature. After washing, 100 μl/well of 1:5000 diluted mouse anti-his tag antibody (R&D Systems, Inc) was added and incubated at room temperature for 1 h. After washing, 100 μl/well of 1:10000 diluted HRP-Goat anti-mouse IgG antibody (Thermo Scientific) was added and incubated for 1 h at room temperature. After washing, TMB was added to develop color. The OD value is measured at 450 nm.

CLD18A1 [3] = target: T2, CLD18A1 (Homo sapiens (Human), UniProt P56856 1-261); assay: cell ELISA, purified HIS-tagged VHH on CHO-S-CLD18A1
T2 construct: also called claudin 18 splice variant A1; CHO-S-CLD18A1
Experimental: as §1

CLD18A2 [4] = target: T1, CLD18A2; assay: cell ELISA, his-tagged VHH titrated on CHO-S-CLD18A2
Experimental: (§2) CHO-S-CLD18A2 cells are plated in a 96-well plate at 5×10⁵ cells per well, and blocked with 3% BSA at room temperature for 1 h. The purified Anti-CLD18A2 VHH fused with histidine tag is diluted in gradients with 1% BSA, added to the blocked cells, and incubated for 1 h at room temperature. After washing, 100 μl/well of 1:5000 diluted mouse anti-his tag antibody (R&D Systems, Inc) was added and incubated at room temperature for 1 h. After washing, 100 μl/well of 1:10000 diluted HRP-Goat anti-mouse IgG antibody (Thermo Scientific) was added and incubated for 1 h at room temperature. After washing, TMB was added to develop color. The OD value is detected at 450 nm. The software GraphPad Prism v5.0 is used for data processing and mapping analysis, and the EC50 value of Anti-CLD18A2 VHH against CLD18A2 on cells is obtained to reflect the affinity of the VHH to CLD18A2.

CLD18A1 [5] = target: T2, CLD18A1; assay: cell ELISA, E. coli expression supernatant on CHO-S-CLD18A1
Experimental: (§3) The clones selected according to the results of the 96-well plates of CHO-S, CHO-S-CLD18A1, and CHO-S-CLD18A2 cells are cultured. pcomb3XSS plasmids containing a single VHH sequence are extracted, and transformed into E. coli respectively to expression host Rosetta DE3. The respective expression clones are selected and cultured, then induced with 0.2 mM IPTG at 30° C. overnight to facilitate the periplasm-expressed proteins leakage into the culture medium supernatant. The culture medium supernatant of 16 clones are examined by ELISA again: adding 100 μl/well of 1:5000 diluted mouse anti his tag antibody (R&D Systems, Inc), incubating at room temperature for 1 h, washing, adding 100 μl/well of 1:10000 diluted HRP-Goat anti-mouse IgG antibody (Thermo Scientific), incubating for 1 h at room temperature, and adding TMB to develop color after washing. The negative control is a clone transfected with negative plasmid. The cell ELISA results are shown in Table 1, and the specific binding clones are further selected. These clones are sequenced respectively. Amino acid sequence alignment is performed. Clones with identical sequences are removed and finally 8 different clones are obtained.

CLD18A2 [6] = target: T1, CLD18A2; assay: cell ELISA, E. coli expression supernatant on CHO-S-CLD18A2
Experimental: as §3

CLD18A2 [7] = target: T1, CLD18A2; assay: cell-based or functional assay
CLD18A2 [8] = target: T1, CLD18A2; assay: cell ELISA on CHO-S-CLD18A2, anti-his tag detection
Experimental: as §2
(§4) CHO-S-CLD18A2 and Jurkat cells are plated in 96-well plates at 5×10⁵/ml per well, and blocked with 3% BSA for 1 hat room temperature. The purified Anti-CLDN18×CD3 fusion protein, the Anti-C18.2-6 and Anti-C18.2-19 VHH prepared in Embodiment 4, and the anti-CD3 VHH are diluted in gradients with 1% BSA, and then added into the pre-blocked cells respectively, and then incubated at room temperature for 1 h. The following experimental process is the same as in Embodiment 4.3. […]

CD3 = target: T3, CD3 (human, UniProt P07766 23-207; P09693 23-182; P04234 22-171; P20963 22-164); assay: cell ELISA on CD3-positive Jurkat cells, anti-his tag detection
T3 construct: whole, on cells; also called CD3 positive cell Jurkat; cluster of differentiation 3
Experimental: as §2, §4

T2 sequence (P56856 whole entry, canonical isoform): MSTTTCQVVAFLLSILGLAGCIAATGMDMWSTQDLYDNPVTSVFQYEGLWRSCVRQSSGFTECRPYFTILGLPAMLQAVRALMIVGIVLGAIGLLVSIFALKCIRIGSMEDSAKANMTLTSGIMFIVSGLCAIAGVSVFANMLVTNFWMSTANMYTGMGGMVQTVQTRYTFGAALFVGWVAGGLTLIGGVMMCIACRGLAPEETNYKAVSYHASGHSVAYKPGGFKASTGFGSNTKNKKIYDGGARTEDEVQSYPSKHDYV
T3 sequence (P07766 23-207, chain 1 of 4): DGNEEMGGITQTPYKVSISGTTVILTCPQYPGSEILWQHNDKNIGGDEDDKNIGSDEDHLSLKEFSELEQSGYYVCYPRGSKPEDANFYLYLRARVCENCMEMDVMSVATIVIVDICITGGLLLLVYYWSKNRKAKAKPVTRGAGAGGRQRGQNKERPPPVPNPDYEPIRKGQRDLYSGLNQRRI
T3 sequence (P09693 23-182, chain 2 of 4): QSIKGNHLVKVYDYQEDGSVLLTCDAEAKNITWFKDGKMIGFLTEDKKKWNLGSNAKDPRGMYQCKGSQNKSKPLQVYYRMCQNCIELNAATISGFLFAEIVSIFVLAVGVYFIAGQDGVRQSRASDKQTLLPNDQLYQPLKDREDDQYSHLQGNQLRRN
T3 sequence (P04234 22-171, chain 3 of 4): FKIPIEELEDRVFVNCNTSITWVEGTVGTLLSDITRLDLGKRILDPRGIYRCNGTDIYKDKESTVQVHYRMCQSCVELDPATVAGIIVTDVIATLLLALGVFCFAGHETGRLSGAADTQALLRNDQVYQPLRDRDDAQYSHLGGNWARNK
T3 sequence (P20963 22-164, chain 4 of 4): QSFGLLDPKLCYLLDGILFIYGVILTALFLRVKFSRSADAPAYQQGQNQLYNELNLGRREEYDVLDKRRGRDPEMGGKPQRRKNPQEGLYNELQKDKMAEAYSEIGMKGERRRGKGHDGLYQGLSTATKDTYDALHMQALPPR

EC50 (CLD18A2 [1]) [nM] | OD450 nm (CLD18A2 [2]) [OD450 nm] | binding result (CLD18A1 [3]) | EC50 (CLD18A2 [4]) [nM] | OD450 nm (CLD18A1 [5]) [OD450 nm] | OD450 nm (CLD18A2 [6]) [OD450 nm] | EC50 (CLD18A2 [8]) [nM] | EC50 (CD3) [nM] | Binder | EC50 of killing of NUGC-4-CLD18A2 with T cells (LDH release, E:T 10:1) (CLD18A2 [7]) [nM]
2.59 |  |  |  |  |  |  |  | ch-175D10 (antibody, V domains shown) VH: QVQLQQPGAELVRPGASVKLSCKASGYTFTSYWINWVKQRPGQGLEWIGNIYPSDSYTNYNQKFKDKATLTVDKSSSTAYMQLSSPTSEDSAVYYCTRSWRGNSFDYWGQGTTLTVSS VL: DIVMTQSPSSLTVTAGEKVTMSCKSSQSLLNSGNQKNYLTWYQQKPGQPPKLLIYWASTRESGVPDRFTGSGSGTDFTLTISSVQAEDLAVYYCQNDYSYPFTFGSGTKLEIKR | 
 | 0.658 | no binding (tested: 2 µg/ml) | 2.12 | 0.132 | 0.594 |  |  | Anti-C18.2-7 (VHH, not shown: small tags and cut ends, Treated as one molecule; also called C18-7) VHH: QVQLVESGGGLVQPGGSLRLSCAASGSIFLINAMGWYRQAPGKQRELVAVITRGGSANYTDSVKGRFTISRDNAKNTVYLQMNSLKPEDTAVYYCNADLNLRSDPFKWYTFWGQGTQVTVSS | 
 | 0.598 | no binding (tested: 2 µg/ml) | 2.54 | 0.121 | 0.47 |  |  | Anti-C18.2-28 (VHH, not shown: small tags and cut ends, Treated as one molecule; also called C18-28) VHH: QVQLVESGGGLVQPGGSLRLSCAASGSIFMINVMGWYRQAPGKQRELVAVITRGASTNYADSVKGRFTISRDNAKNTVYLQMNSLKPEDTAVYYCNADLNLASDPFKWYTYWGQGTQVTVSS | 
 | 0.573 | no binding (tested: 2 µg/ml) | 2.23 | 0.253 | 0.608 |  |  | Anti-C18.2-69 (VHH, not shown: small tags and cut ends, Treated as one molecule; also called C18-69) VHH: QVQLVESGGGLVQPGGSLRLSCAASGSIFSIPVMTWYRQALGKEREFVAGISKGGTSNYADSVKGRFTVSRDNAKNTVYLQMNSLKSEDTAVYYCNAQASSFGWMPLSDYWGQGTQVTVSS | 
 |  |  |  |  |  | 4.6 | 10.4 | Anti-CLDN18×CD3-hu19V3 (bispecific antibody, Bispecific VHH; Expressed in Pichia pastoris; also called Anti-CLDN18×CD3 fusion protein) QVQLVESGGGLVQPGGSLRLSCAASGVDISSDVMAWYRQAPGKGLEFVSGLTRGGSINYADSVKGRFTISRDNSKNTLYLQMNSLRAEDTAVYYCNAEIYTGTFYPRSYWGQGTLVTVSSGGGGSGGGGSGGGGSGGGGSGGGGSGGGGSGGGGSEVQLVESGGGPVQAGGSLRLSCAASGRTYRGYSMGWFRQAPGKEREFVAAIVWSGGNTYYEDSVKGRFTISRDNAKNTMYLQMTSLKPEDSATYYCAAKIRPYIFKIAGQYDYWGQGTQVTVSS | 0.0207
 | 0.621 | no binding (tested: 2 µg/ml) | 1.87 | 0.128 | 0.528 |  |  | Anti-C18.2-20 (VHH, not shown: small tags and cut ends, Treated as one molecule; also called C18-20) VHH: QVQLVESGGGLVQPGGSLRLSCAASGSIFSINAMGWYRQAPGKQRELVAAITFGGGSTNYADSVKGRFTISRDNAKNTVYLQMNSLKPEDTAVYYCNADLLVGGFPRRNVYWGQGTQVTVSS | 
 |  |  |  |  |  | 6.5 | 9.39 | Anti-CLDN18×CD3-hu6V3 (bispecific antibody, Bispecific VHH; Expressed in Pichia pastoris; also called Anti-CLDN18×CD3 fusion protein) QVQLVESGGGLVQPGGSLRLSCAASGGIFSIGVMGWYRQAPGKGLELVATITSRGSTNYADSVKGRFTISRDNSKNTLYLQMNSLRAEDTAVYYCYADLIRPGDFYGMDYWGQGTLVTVSSGGGGSGGGGSGGGGSGGGGSGGGGSGGGGSGGGGSEVQLVESGGGPVQAGGSLRLSCAASGRTYRGYSMGWFRQAPGKEREFVAAIVWSGGNTYYEDSVKGRFTISRDNAKNTMYLQMTSLKPEDSATYYCAAKIRPYIFKIAGQYDYWGQGTQVTVSS | 0.0261
 | 0.668 | no binding (tested: 2 µg/ml) | 1.25 | 0.121 | 0.565 |  |  | Anti-C18.2-19 (VHH, not shown: small tags and cut ends, Treated as one molecule; also called C18-19) VHH: QLQLVESGGGLVQPGGSLRLSCAASGVDISSDVMAWYRQAPGKQREFVSGLTRGGSINYADSVKGRFTISRDFAKNTVDLQMNSLKPEDTAVYYCNAEIYTGTFYPRSYWGQGTQVTVSS | 
 | 0.586 | no binding (tested: 2 µg/ml) | 2.21 | 0.107 | 0.526 |  |  | Anti-C18.2-32 (VHH, not shown: small tags and cut ends, Treated as one molecule; also called C18-32) VHH: QLQLVESGGGLVQPGGSLRLSCAASGEISSDAMAWYRQAPGKQRELVAGMTRGGSTNYADSVKGRFTISRDFAKNTVDLQMNSLKPEDTAVYYCNAEIYTGTFYPRSYWGQGTQVTVSS | 
 | 0.719 | no binding (tested: 2 µg/ml) | 1.53 | 0.142 | 0.623 |  |  | Anti-C18.2-6 (VHH, not shown: small tags and cut ends, Treated as one molecule; also called C18-6) VHH: QLQLVESGGGLVQPGGSLRLSCAASGGIFSIGVMGWYRQAPGKQRELVATITSRGSTNYADSVKGRFTISGDNAKNTVYLQMNNLKPEDTAVYYCYADLIRPGDFYGMDYWGKGTLVTVSS | 
 | 0.671 | no binding (tested: 2 µg/ml) | 2.89 | 0.189 | 0.685 |  |  | Anti-C18.2-15 (VHH, not shown: small tags and cut ends, Treated as one molecule; also called C18-15) VHH: QVQLVESGGGLVQPGGSLRLSCTASGSIFRIDGMHWYRQAPGKQRELVASITPSGITHYADSVKGRFTISRDIAKKMQYLQMNSLKPEDTAVYYCNAHLVKVGGVWSDEYWGQGTQVTVSS | 
